One assay concerns C81 cells. The experiment in a line: HRG-induced growth of C81 transfectants. It is filed as cell-based, human. The following applies: ectopic expression of EBP1, androgen-free media. The procedure:
FIG. 6A-C. EBP1 overexpression inhibits the response to HRG A. EBP1 and vector control transfected cells were plated in complete media at 5×10^3 cells/well for one day. The next day, cells were switched to steroid reduced-media and HRG added at the indicated concentrations. Total cell numbers were determined seven days later by MTT assay. Each point represents mean±S.E. of 6 wells. Data is representative of three experiments. B. AKT activation in response to HRG C81-EBP1 or vector control cells were serum starved overnight and then treated with HRG (20 ng/ml) for the indicated times (mm). Cell lysates were immunoblotted with antibody to phospho-AKT or total AKT as indicated. C. […]
Western Blot Analysis. […] For soft agar growth assays, increasing concentrations of cells (as indicated) were plated in 35 mm Petri dishes in 0.3% agar in complete media and colonies were counted after 10 days of incubation (21). […] Relative cell growth was determined using a Promega Proliferation Reagent (Promega, Madison Wis.) as per manufacturer's instructions with absorbance being read at […] using a Dynex plate reader. […] Luciferase activity was determined using the Promega Dual luciferase assay kit as described by the manufacturer. […] Tumors were measured with calipers. Tumor volumes were calculated by the formula width^2×length/2 […]. Mean tumor volume±S.D. were calculated and plotted against time. […]

The subject of the next assay is AU565 cells. The assay is described as follows: Western blot of ErbB2 in AU565 EBP1 transfectants. The format is cell-based, human. The procedure:
FIG. 10A-C. Effect of ectopic expression of EBP1 on ErbB3 or ErbB2 protein levels. (A and B) Lysates of logarithmically growing MCF-7 vector control cells (CMV) or EBP1 transfected cells (Ebp1) or (C) AU565 cells were blotted with antibodies for ErbB3 or ErbB2 and actin as indicated. Data are representative of three experiments.
2.5. Western blot analysis. Total cell extracts were prepared by direct lysis of cells with lysis buffer [50 mM Tris-HCl (pH 7.4), 1 mM EDTA, 250 mM NaCl, 1% Triton X-100, 0.5 mM DTT, and 1× Complete™ protease inhibitor]. Protein concentrations were measured using a detergent compatible kit (Bio-Rad). Proteins (30 lg per well) were resolved by SDS-PAGE, transferred to PVDF membranes, and immunoblotted as described. […] Images were quantified using IMAGE-J software (NIH). […] Relative cell numbers were determined 4 days later using a Promega Proliferation Reagent as per manufacturer's instructions with absorbance being read at 490 nm using a Dynex plate reader. […] Data were analyzed using a two-tailed Students t-test and a p <0.05 was deemed statistically significant. […]
Background: In western blotting, separated proteins are transferred to a membrane and probed.

From patent US7838495B2, “Compositions and methods of use of EPB1, and ErbB3 binding protein” (University of Maryland, Baltimore, priority 2007, dated 2010) come the findings set out here.

B1: EBP1: ErbB3 binding protein (SEQ ID NO: 2), AR corepressor, here ectopically expressed in cancer cells by stable transfection of an expression plasmid (protein, listed as Homo sapiens)
chain: MSGEDEQQEQTIAEDLVVTKYKMGGDIANRVLRSLVEASSSGVSVLSLCEKGDAMIMEETGKIFKKEKEMKKGIAFPTSISVNNCVCHFSPLKSDQDYILKEGDLVKIDLGVHVDGFIANVAHTFVVDVAQGTQVTGRKADVIKAAHLCAEAALRLVKPGNQNTQVTEAWNKVAHSFNCTPIEGMLSHQLKQHVIDGEKTIIQNPTDQQKKDHEKAEFEVHEVYAVDVLVSSGEGKAKDAGQRTTIYKRDPSKQYGLKMKTSRAFFSEVERRFDAMPFTLRAFEDEKKARMGVVECAKHELLQPFNVLYEKEGEFVAQFKFTVLLMPNGPMRITSGPFEPDLYKSEMEVQDAELKALLQSSASRKTQKKKKKKASKTAENATSGETLEENEAGD
modifications: FLAG tag
For the molecule B1, the “ability of C81 cells to grow in response to HRG” value in the assay on C81 cells is on record as “completely abrogated”. Besides, the “decrease of ErbB2 protein” value in the assay with AU565 cells is 57%.
